According to patent publication US20240287172A1 (SCIRHOM, published 2024):

Key:
[1] = target: T1, hiR2-FL-G531S-T7 (human, UniProt Q6PJF5 1-856); assay: FACS, MEF-DKO cells, 3 µg/ml
T1 sequence: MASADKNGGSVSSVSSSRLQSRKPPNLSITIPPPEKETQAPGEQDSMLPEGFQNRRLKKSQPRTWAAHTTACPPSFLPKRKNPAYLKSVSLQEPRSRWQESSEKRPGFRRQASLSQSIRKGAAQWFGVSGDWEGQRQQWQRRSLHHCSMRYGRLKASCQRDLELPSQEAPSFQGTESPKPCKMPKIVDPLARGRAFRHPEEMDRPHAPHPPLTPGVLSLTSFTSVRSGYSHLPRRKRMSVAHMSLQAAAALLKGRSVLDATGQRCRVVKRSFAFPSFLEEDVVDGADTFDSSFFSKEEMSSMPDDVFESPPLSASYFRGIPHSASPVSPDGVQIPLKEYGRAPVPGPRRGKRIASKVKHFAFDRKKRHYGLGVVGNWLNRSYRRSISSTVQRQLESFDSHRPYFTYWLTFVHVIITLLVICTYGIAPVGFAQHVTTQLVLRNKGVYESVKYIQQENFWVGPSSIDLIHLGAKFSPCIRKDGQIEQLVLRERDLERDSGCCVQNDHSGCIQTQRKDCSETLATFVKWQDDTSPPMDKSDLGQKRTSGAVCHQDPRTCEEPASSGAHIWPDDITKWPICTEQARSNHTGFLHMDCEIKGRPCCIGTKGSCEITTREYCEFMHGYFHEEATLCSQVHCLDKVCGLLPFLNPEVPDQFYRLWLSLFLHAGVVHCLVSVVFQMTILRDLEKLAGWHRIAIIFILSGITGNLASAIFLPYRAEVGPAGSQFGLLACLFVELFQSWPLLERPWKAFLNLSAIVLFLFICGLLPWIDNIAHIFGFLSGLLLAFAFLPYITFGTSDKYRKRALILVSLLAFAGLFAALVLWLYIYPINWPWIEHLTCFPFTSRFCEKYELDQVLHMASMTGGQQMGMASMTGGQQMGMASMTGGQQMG

[2] = target: T2, hiR2-FL-H505R-T7 (human, UniProt Q6PJF5 1-856); assay: FACS on MEF-DKO cells
T2 sequence: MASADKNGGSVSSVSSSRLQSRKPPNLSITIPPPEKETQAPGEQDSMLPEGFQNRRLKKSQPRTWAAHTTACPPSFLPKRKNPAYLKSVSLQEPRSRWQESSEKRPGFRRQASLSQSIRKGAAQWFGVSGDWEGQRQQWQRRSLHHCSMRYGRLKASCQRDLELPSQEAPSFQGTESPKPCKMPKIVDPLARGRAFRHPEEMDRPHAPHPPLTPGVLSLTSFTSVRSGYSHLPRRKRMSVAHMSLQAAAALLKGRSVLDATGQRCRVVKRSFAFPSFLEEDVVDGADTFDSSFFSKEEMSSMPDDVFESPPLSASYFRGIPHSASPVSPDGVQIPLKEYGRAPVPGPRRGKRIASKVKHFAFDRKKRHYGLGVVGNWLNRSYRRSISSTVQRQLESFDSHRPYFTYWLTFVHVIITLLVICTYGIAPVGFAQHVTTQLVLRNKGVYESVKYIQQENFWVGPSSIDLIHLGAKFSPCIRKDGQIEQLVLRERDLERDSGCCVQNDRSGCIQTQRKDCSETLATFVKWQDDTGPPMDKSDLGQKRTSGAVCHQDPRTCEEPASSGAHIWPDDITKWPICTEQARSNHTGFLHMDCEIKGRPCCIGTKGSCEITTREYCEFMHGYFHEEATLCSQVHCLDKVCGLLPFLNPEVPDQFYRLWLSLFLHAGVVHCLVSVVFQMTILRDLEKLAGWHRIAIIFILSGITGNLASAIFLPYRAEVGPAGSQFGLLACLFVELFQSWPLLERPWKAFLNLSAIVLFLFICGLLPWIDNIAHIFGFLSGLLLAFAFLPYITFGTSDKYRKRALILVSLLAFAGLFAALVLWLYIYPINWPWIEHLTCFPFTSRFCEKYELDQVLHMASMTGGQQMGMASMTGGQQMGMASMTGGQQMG

[3] = target: T3, miR2-FL-WT-T7 (mouse, UniProt Q80WQ6 1-827); assay: FACS on MEF-DKO-miR2-FL-WT-T7 cells
T3 construct: on MEF-DKO cells
T3 sequence: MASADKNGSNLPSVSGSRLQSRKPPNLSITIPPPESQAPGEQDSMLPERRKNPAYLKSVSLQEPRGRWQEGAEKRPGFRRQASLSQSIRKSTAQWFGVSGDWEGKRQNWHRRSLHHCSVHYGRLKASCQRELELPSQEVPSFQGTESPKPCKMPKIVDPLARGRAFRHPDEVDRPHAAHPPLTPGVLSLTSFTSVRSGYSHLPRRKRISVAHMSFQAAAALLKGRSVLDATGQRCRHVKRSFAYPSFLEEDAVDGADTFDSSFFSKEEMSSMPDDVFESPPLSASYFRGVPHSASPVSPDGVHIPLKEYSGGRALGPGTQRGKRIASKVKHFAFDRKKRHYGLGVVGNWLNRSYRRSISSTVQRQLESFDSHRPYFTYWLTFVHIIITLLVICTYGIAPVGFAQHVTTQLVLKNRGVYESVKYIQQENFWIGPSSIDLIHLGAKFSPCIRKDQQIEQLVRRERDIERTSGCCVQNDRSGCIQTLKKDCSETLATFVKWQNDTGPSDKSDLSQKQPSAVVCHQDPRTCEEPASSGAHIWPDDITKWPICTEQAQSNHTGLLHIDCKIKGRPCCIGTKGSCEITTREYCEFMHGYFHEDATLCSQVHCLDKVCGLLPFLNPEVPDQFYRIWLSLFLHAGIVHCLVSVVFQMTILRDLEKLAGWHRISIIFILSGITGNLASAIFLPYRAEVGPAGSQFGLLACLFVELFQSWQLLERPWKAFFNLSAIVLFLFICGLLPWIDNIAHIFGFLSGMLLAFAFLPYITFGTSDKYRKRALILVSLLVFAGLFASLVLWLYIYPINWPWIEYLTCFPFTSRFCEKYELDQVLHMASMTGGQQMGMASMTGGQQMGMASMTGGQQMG

B1: antibody 48 (antibody, V domains shown)
VH: QVQLQQSGTELVRPGTSVKVSCKASGYAFTNYLIEWVKQRPGQGLEWIGVINPGSGFTKYNEKFKGKATLTADKSSSTVYMHLSSLTSEDSAVYFCARGLYRAMDYWGQGTSVTVSS
VL: DIQMTQSPASQSASLGESVTITCLASQTIATWLAWYQQKPGKSPQLLIYGATTLADGVPSRFSGGGSGTKFSFKISSLQAEDFVSYYCQQLYSTPYTFGGGTKLEIK
notes: mouse IgG, kappa light chain; also called clone #48; purified antibody 48
**Q.** How did the “loss of binding vs wild type” value [1] turn out when B1 was run?
**A.** Its value is no less than 30%.

B2: antibody 50 (antibody, V domains shown)
VH: QVQLQQSGAELVRPGASVKVSCKASGYAFSNYLIEWVKQRPGQGLEWIGVINPGSGFTKYNEKFKGKATLTADKSSSTAYMQLSSLTSEDSAVYFCARGLYRAMDYWGQGTSVTVSS
VL: DIQMTQSPASQSASLGESVTITCLASQTIGTWLAWYQQKPGKSPQLLIYAAASLADGVPSRFSGGGSGTKFSFKISSLQAEDFVNYYCQQIYSTPYTFGGGTKLEIK
notes: mouse IgG, kappa light chain; also called clone #50; purified antibody 50
**Q.** Does B2 bind [2]?
**A.** Result: no binding (tested: 3 µg/ml)

**Q.** And the “loss of binding vs wild type” value [1]?
**A.** The value was no less than 30%.

B3: antibody 3 (antibody, V domains shown)
VH: QVTLKESGPGILQPSQTLSLTCSFSGFSLTTFAMGIGWVRQPSGKGLEWLAHIWWDGEKYNNPVLKSRLTISKDTSKNQVFLRIANVDTPDTATYYCARISSIYYIIDNWGQGTSVTVSS
VL: DIVLTQSPATLSVTPGHSVSLSCRASQSISNNLHWYQKKSHESPRLLIKYVSQSISGIPSRFSGSGSGTDFTLSINSVETEDFGMYFCQQSYNWPLTFGAGTKLELK
notes: mouse IgG, kappa light chain; also called clone #3; purified antibody 3
**Q.** Does B3 bind [3]?
**A.** Result: no binding (tested: 3 µg/ml)
